Experimental data: IntAct's records for PubMed 18959476

Target: mthK, O27564-2

Substance: Calcium-gated potassium channel MthK (Methanobacterium thermoautotrophicum) (from UniProt O27564-1) L3D
- effect of a mutation on the interaction: disrupting interaction
